We go through 1 substance from PMC8104898.

The target in the assay is fibronectin fragment FN7-10 (type III domains 7 to 10), wild type. The assay can be described thus: ELISA. On the technique in general: In an ELISA, binding on a coated surface is turned into a signal by an enzyme label.

In the case of “recombinant integrin α5(N275A)β1 ectodomain, unclasped (from UniProt P08648;P05556) (complex)”, the reduction of binding against the wild-type ectodomain was found to be 60%.
